Results: publication PMC3766450 (Nature structural & molecular biology, 2013)

Target: vertebrate calmodulin (CaM) (UniProt P0DP23)
Assay: ITC

Row | Binder | stoichiometry N
1 | LFPRAKSVSERLSILKGSRP [AQP0^CBD peptide L227A] | 1 peptide per CaM
2 | LFPRLKSVSERASILKGSRP [AQP0^CBD peptide L234A] | 2 peptides per CaM
3 | LFPRLKSASERLSILKGSRP [AQP0^CBD peptide V230A] | 1 peptide per CaM
4 | LFPRLKSVSERLSIAKGSRP [AQP0^CBD peptide L237A] | 2 peptides per CaM
